In PMC7190159, “The L motifs of two moss pentatricopeptide repeat proteins are involved in RNA editing but predominantly not in RNA recognition”:

T1: 56ΔDYW-13L[ED] (Physcomitrella patens, UniProt A0A2K1IWP1 161-764, V592E)
T1 sequence: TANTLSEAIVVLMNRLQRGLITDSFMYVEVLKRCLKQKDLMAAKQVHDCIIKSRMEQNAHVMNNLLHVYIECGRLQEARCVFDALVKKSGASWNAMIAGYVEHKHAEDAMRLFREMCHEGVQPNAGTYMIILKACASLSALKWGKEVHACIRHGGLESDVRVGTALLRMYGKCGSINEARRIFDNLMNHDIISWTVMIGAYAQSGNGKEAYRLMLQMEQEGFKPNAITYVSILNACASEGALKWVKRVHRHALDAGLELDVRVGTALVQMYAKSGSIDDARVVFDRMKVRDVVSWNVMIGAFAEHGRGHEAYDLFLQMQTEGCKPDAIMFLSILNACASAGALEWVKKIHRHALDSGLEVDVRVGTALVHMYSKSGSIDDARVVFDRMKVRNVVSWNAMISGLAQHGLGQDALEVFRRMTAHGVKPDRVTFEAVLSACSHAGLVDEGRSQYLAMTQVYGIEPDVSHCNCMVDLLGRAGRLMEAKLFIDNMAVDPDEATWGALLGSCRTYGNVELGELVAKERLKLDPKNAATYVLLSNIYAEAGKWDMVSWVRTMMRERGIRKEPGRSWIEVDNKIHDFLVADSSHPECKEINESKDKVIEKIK

T2: 56ΔDYW-13L[PD] (Physcomitrella patens, UniProt A0A2K1IWP1 161-764, V592P)
T2 sequence: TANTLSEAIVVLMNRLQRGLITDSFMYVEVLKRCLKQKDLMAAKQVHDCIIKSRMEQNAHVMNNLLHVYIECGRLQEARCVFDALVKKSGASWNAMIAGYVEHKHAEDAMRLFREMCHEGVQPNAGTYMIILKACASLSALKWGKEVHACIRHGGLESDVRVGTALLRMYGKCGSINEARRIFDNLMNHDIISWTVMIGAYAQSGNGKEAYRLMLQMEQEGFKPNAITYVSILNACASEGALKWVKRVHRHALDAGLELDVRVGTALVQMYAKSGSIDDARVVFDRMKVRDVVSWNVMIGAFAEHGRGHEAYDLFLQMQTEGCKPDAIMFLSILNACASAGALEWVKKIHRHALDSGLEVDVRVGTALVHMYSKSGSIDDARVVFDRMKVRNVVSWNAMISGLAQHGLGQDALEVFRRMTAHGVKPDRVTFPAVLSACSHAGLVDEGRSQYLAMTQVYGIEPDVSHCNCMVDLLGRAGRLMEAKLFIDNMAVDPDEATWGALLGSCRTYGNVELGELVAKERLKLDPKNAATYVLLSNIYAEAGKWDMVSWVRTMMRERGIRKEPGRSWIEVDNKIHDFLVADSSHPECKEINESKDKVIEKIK

T3: 56ΔDYW-nad3L (Physcomitrella patens, UniProt A0A2K1IWP1 161-764, V188N;M289T;V390T;D420N;L491N;D521S;V592N;D623S)
T3 sequence: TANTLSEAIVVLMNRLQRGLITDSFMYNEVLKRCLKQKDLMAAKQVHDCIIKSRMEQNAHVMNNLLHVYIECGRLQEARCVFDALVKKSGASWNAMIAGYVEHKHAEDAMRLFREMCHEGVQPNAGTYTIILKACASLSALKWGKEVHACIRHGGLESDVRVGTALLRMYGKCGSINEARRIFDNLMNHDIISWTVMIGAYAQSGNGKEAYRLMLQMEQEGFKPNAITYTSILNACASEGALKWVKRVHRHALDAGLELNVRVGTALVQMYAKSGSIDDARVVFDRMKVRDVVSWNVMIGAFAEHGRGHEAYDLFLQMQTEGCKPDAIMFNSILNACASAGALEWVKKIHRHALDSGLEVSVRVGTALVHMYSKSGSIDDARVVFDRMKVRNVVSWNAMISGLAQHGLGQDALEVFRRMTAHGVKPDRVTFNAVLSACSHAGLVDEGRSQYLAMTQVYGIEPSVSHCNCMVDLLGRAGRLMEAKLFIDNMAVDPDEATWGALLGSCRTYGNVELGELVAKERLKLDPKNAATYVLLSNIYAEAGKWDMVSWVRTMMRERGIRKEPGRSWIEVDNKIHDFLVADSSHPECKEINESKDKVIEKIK

T4: 56ΔDYW-wt (PpPPR_56 without transit peptide and DYW domain) (Physcomitrella patens, UniProt A0A2K1IWP1 161-764)
T4 sequence: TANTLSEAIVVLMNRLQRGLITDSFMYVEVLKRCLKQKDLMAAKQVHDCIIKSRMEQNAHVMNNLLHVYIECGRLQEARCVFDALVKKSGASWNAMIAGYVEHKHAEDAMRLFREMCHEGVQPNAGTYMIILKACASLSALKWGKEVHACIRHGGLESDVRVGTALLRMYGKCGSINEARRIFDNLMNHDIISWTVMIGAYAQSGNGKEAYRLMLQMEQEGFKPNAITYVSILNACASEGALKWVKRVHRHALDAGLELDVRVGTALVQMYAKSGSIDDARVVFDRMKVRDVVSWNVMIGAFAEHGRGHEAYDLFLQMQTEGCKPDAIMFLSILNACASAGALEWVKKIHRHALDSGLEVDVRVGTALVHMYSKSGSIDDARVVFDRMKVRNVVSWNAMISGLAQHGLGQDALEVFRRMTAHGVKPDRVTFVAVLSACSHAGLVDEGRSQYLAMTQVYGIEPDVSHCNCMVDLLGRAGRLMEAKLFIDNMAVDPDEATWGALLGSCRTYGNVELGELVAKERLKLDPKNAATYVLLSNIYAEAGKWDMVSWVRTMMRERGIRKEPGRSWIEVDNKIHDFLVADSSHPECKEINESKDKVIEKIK


How the values were obtained:
Settings in all cases: protein: recombinant; tags: N-term thioredoxin; C-term 6xHis; label: 5'-32P
[1] = target: T1, 56ΔDYW-13L[ED]; assay: EMSA; like wt; 40 mM Tris pH 8.0, 100 mM NaCl, 4 mM DTT, 0.1 mg/mL BSA, 10% glycerol, 25°C; protein 10 min, then 50 pM RNA 15 min; native 6% PAGE
[2] = target: T2, 56ΔDYW-13L[PD]; assay: as above
[3] = target: T3, 56ΔDYW-nad3L; assay: EMSA; no significant difference from wt; 40 mM Tris pH 8.0, 100 mM NaCl, 4 mM DTT, 0.1 mg/mL BSA, 10% glycerol, 25°C; protein 10 min, then 50 pM RNA 15 min; native 6% PAGE
[4] = target: T4, 56ΔDYW-wt (PpPPR_56 without transit …); assay: EMSA; 0-100 nM protein, 50 pM RNA; lower affinity than for nad4; 40 mM Tris pH 8.0, 100 mM NaCl, 4 mM DTT, 0.1 mg/mL BSA, 10% glycerol, 25°C; protein 10 min, then 50 pM RNA 15 min; native 6% PAGE
[5] = target: T4, 56ΔDYW-wt (PpPPR_56 without transit …); assay: EMSA; 100 nM protein; 40 mM Tris pH 8.0, 100 mM NaCl, 4 mM DTT, 0.1 mg/mL BSA, 10% glycerol, 25°C; protein 10 min, then 50 pM RNA 15 min; native 6% PAGE
[6] = target: T3, 56ΔDYW-nad3L; assay: as above
[7] = target: T1, 56ΔDYW-13L[ED]; assay: as above
[8] = target: T2, 56ΔDYW-13L[PD]; assay: as above
[9] = target: T4, 56ΔDYW-wt (PpPPR_56 without transit …); assay: EMSA; 0-100 nM protein, 50 pM RNA; better affinity than for nad3; 40 mM Tris pH 8.0, 100 mM NaCl, 4 mM DTT, 0.1 mg/mL BSA, 10% glycerol, 25°C; protein 10 min, then 50 pM RNA 15 min; native 6% PAGE

Binder | binding result [1] | binding result [2] | binding result [3] | binding result [4] | binding result [5] | binding result [6] | binding result [7] | binding result [8] | binding result [9]
UUAUUAUAUUUGAUUUGGAAGUCACCUUUUCAUUUC (ssRNA) [nad3-edit] | binds | binds | binds | binds |  |  |  |  | 
UUAUUUUUUUCGUUUCUCUUUUUGUUUUU (ssRNA) [PpPsbI-RNA1] |  |  |  |  | no binding | no binding | no binding | no binding | 
AUUUUUAUAUAGGUAUAGACGGUAUCUCUUCAUUUU (ssRNA) [nad4-edit] | binds | binds |  |  |  |  |  |  | binds
